{
  "source": "the supplement of paper PMC9732359",
  "note": "± gives the uncertainty stated by the source.",
  "data": [
    {"test": "protein stability index of a GFP-peptide fusion (yeast GPS) (PSI 1-4); higher = more stable; sorted into four equal gates, so the index is relative within each strain", "conditions": "doa10∆", "method_in_brief": "(§1)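 Plasmids isolated from each sorting gate were PCR-amplified and Illumina-sequenced, and barcodes assigned the reads to strains. The gates, four of equal size, were set by GFP/Cherry fluorescence ratio on mid-log cultures in leucine-free medium. These cultures were yeast carrying a pooled library of tiled 17-residue yeast protein peptides fused downstream of GFP on a plasmid that also expresses Cherry. The protein stability index is the sum of every gate's read frequency times its gate number.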", "values": [
      {"sequence": "IQQLISQFLKRVHANLQ [SNF11]", "protein stability index": "1.63 ± 0.051"},
      {"sequence": "IQRTTESLILKWDNQSA [RGR1]", "protein stability index": "3.14 ± 0.051"},
      {"sequence": "IQSKAVEQGYEDAFNFW [YCG1]", "protein stability index": "3.37 ± 0.13"},
      {"sequence": "IQYVTYLLTQQQIWKSP [SOH1]", "protein stability index": "2.16 ± 0.056"},
      {"sequence": "IRAELLNDRKVLFAAYK [RPB11]", "protein stability index": "2.18 ± 0.081"},
      {"sequence": "IRGILMASGSTTFTKVA [PRP8]", "protein stability index": "2.76 ± 0.063"},
      {"sequence": "IRIYFTEKDDNKTNNED [NUT1]", "protein stability index": "2.82 ± 0.1"},
      {"sequence": "IRKGANDGEVYQKIFKP [PRE9]", "protein stability index": "2.06 ± 0.098"},
      {"sequence": "IRKGPAPLNLEIPAYEF [RIP1]", "protein stability index": "2.76 ± 0.062"},
      {"sequence": "IRKLTLRDTFIELDQVL [RPO21]", "protein stability index": "2.31 ± 0.12"},
      {"sequence": "IRKYGLNICRQCFREKA [RPS29A]", "protein stability index": "1.59 ± 0.067"},
      {"sequence": "IRLANESSELNKDSIEE [CSN12]", "protein stability index": "3.22 ± 0.084"},
      {"sequence": "IRLSKILEDDFAVALKN [CDC53]", "protein stability index": "3.19 ± 0.15"},
      {"sequence": "IRPTELRLPFSAAMSID [PRP8]", "protein stability index": "1.93 ± 0.049"},
      {"sequence": "IRSSRSRGIVIGSGAMS [RPP1]", "protein stability index": "2.63 ± 0.085"},
      {"sequence": "ISHDDLQAVAVAVSTKK [FAS2]", "protein stability index": "1.47 ± 0.29"},
      {"sequence": "ISHIEKRIESLQKDLQR [SMC1]", "protein stability index": "1.86 ± 0.065"},
      {"sequence": "ISICMILCGIQEYLNPV [YDL116W/NUP84]", "protein stability index": "1.97 ± 0.1"},
      {"sequence": "ISKKIIGMSLLMRTFLY [SIR3]", "protein stability index": "1.79 ± 0.081"},
      {"sequence": "ISKSLTFSQESGLMVIL [RRI2]", "protein stability index": "2.23 ± 0.095"},
      {"sequence": "ISLPKGKGIKLSIAEER [RPS4A]", "protein stability index": "2.03 ± 0.15"},
      {"sequence": "ISNYNTKYTDDMATGSN [SRB8]", "protein stability index": "3.04 ± 0.1"},
      {"sequence": "ISPKIWCAGAGTAADTE [PUP1]", "protein stability index": "2.29 ± 0.1"},
      {"sequence": "ISQKLHDSILHSRILPK [RRP43]", "protein stability index": "2.57 ± 0.046"},
      {"sequence": "ISQLYSDAVMAEHSQNK [YJL041W/NSP1]", "protein stability index": "2.99 ± 0.079"},
      {"sequence": "ISSSTQCLRFLKETVIP [POP6]", "protein stability index": "1.52 ± 0.074"},
      {"sequence": "ISTYISTDELVGSPLTV [POP8]", "protein stability index": "1.49 ± 0.13"},
      {"sequence": "ISVIETIRVVTENKIFV [RPN5]", "protein stability index": "1.6 ± 0.14"},
      {"sequence": "ISYKKGAASNRTKFVRS [RPL36A]", "protein stability index": "3.06 ± 0.1"},
      {"sequence": "ITATLVGTVRCEEEKKT [CSL4]", "protein stability index": "1.54 ± 0.14"},
      {"sequence": "ITDKGTVDGRLYQLFKT [YJL039C/NUP192]", "protein stability index": "3.19 ± 0.11"},
      {"sequence": "ITDKTIESIVNLAPKLR [GRR1]", "protein stability index": "2.81 ± 0.081"},
      {"sequence": "ITHPGKMELVYVSDSDD [SIR4]", "protein stability index": "3.24 ± 0.077"},
      {"sequence": "ITHQLNNKFANKIIPNV [RPC25]", "protein stability index": "2.72 ± 0.069"},
      {"sequence": "ITKFALFAESHDVLQKL [YML103C/NUP188]", "protein stability index": "2.34 ± 0.1"},
      {"sequence": "ITNTDETITTKRVPNPN [SWP82]", "protein stability index": "3.09 ± 0.077"},
      {"sequence": "ITSFDQDVDDAHAIDQM [POP8]", "protein stability index": "1.55 ± 0.064"},
      {"sequence": "ITSFGFGQKGGQAIVVH [FAS2]", "protein stability index": "1.28 ± 0.074"},
      {"sequence": "ITSINVENDTFIERNFT [FAS2]", "protein stability index": "3.01 ± 0.089"},
      {"sequence": "ITVTAKQQPTMQANKLD [SWI3]", "protein stability index": "3.19 ± 0.096"},
      {"sequence": "ITYGIIKVPTYIRKLIS [SRB8]", "protein stability index": "1.32 ± 0.074"},
      {"sequence": "IVEEDLEPFEASKETAE [FAS2]", "protein stability index": "3.42 ± 0.18"},
      {"sequence": "IVEINNVSNTFNKTTNI [YJL041W/NSP1]", "protein stability index": "2.87 ± 0.048"},
      {"sequence": "IVFDNTDKSNSPIGFTN [SMC2]", "protein stability index": "3.1 ± 0.049"},
      {"sequence": "IVFHNEFSEHTFVERLP [DIS3]", "protein stability index": "2.43 ± 0.05"},
      {"sequence": "IVNNDLPTTVVSNPGDN [MED2]", "protein stability index": "2.84 ± 0.051"},
      {"sequence": "IVPSMTHLEIEPFTILG [RET1]", "protein stability index": "1.49 ± 0.037"},
      {"sequence": "IVRPAKGVATTREKVLE [RRP46]", "protein stability index": "3.43 ± 0.16"},
      {"sequence": "IVTALLESDVNIALVSK [SRP54]", "protein stability index": "3.22 ± 0.18"},
      {"sequence": "IWVGEWKEVLAHNPELE [RPO31]", "protein stability index": "3 ± 0.087"},
      {"sequence": "IYAKYGAKGSTLIVVPF [FAS2]", "protein stability index": "2.4 ± 0.072"}
    ]},
    {"test": "protein stability index of a GFP-peptide fusion (yeast GPS) (PSI 1-4); higher = more stable; sorted into four equal gates, so the index is relative within each strain", "conditions": "pdr5∆", "method_in_brief": "as §1", "values": [
      {"sequence": "ILGQTMSIGTGSFKVVK [RPO31]", "protein stability index": "2.47 ± 0.13"}
    ]}
  ]
}
